Source: the supplement of paper PMC10126150
± gives the standard deviation of the averaged measurements.
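Note: ATP exposure 15 min at 22 °C before imaging.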

The sequences below were run on ATP (assay: switch fluorescence ratio, 500 uM ATP over buffer (Cy3 cluster intensity, sum of 5 cycles each) (fold (ratio)); higher = stronger signal-on switching upon ATP binding; sequences stand for … in TCGTCGGCAGCGTCAGATGTGTATAAGAGACAGTTTTTTTTTTTTTTTTTTTTTTTTT…TC). Details: aptamer strand: ATP DNA aptamer (quencher-CACCTGGGGGAGTATTGCGGAGGAAGG + anchor), 100 nM annealed; ATP concentration: 500 uM.
How it was run: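 Imaging in selection buffer was followed by imaging after 15 min with 500 uM ATP at 22 °C, for Cy3-labelled switching-strand clusters annealed to 100 nM quencher-labelled ATP aptamer on a modified Illumina MiSeq flow-cell. Five of these buffer/ATP cycles ran, separated by NaOH stripping and re-annealing. The fluorescence ratio per cluster is summed target-cycle over summed buffer-cycle Cy3 intensity, averaged per switch-domain sequence; clusters outside 100-1000 RFU were removed.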
TTTATGTTCG showed a switch fluorescence ratio of 0.99 ± 0.02.
With TTTATGTTT the switch fluorescence ratio was 0.984 ± 0.019.
In the case of TTTATTATTT, the switch fluorescence ratio is reported as 0.989 ± 0.024.
For TTTATTCCGG, the switch fluorescence ratio was 1 ± 0.01.
TTTATTCTGT was tested, and the switch fluorescence ratio was 1 ± 0.022.
With TTTATTCTTA the switch fluorescence ratio was 0.9807 ± 0.0081.
Work on TTTATTGCTA yielded a switch fluorescence ratio of 1.01 ± 0.034.
TTTATTTGCC showed a switch fluorescence ratio of 1.05 ± 0.042.
TTTATTTGG gave a switch fluorescence ratio of 1.09 ± 0.12.
Work on TTTATTTTTG yielded a switch fluorescence ratio of 0.992 ± 0.029.
TTTCAAAAGT was tested, and the switch fluorescence ratio was 1.006 ± 0.006.
TTTCAACATA gave a switch fluorescence ratio of 0.9987 ± 0.0035.
With TTTCACAAGG the switch fluorescence ratio was 0.9836 ± 0.0089.
TTTCACCCCT showed a switch fluorescence ratio of 1.09 ± 0.067.
TTTCACGAAT was tested, and the switch fluorescence ratio was 0.993 ± 0.015.
TTTCACGCGC showed a switch fluorescence ratio of 1.03 ± 0.016.
With TTTCAGGATG the switch fluorescence ratio was 0.963 ± 0.017.
TTTCAGGGGA was tested, and the switch fluorescence ratio was 1.19 ± 0.32.
In the case of TTTCAGGTTT, the switch fluorescence ratio is reported as 0.983 ± 0.033.
In the case of TTTCAGTCGG, the switch fluorescence ratio is reported as 1.006 ± 0.0037.
TTTCAGTGCA was tested, and the switch fluorescence ratio was 1.02 ± 0.029.
Sequence TTTCATAAGT has a switch fluorescence ratio of 0.999 ± 0.025.
TTTCATACTC showed a switch fluorescence ratio of 1.29 ± 0.21.
In the case of TTTCATTTTA, the switch fluorescence ratio is reported as 0.9881 ± 0.0064.
TTTCATTTTG was tested, and the switch fluorescence ratio was 1.03 ± 0.017.
TTTCCCGACG showed a switch fluorescence ratio of 1.12 ± 0.11.
Work on TTTCCCGGGC yielded a switch fluorescence ratio of 1.01 ± 0.056.
For TTTCCGAGGA, the switch fluorescence ratio was 1.03 ± 0.069.
Sequence TTTCCGCAGG has a switch fluorescence ratio of 1.24 ± 0.17.
TTTCCGCTTA gave a switch fluorescence ratio of 3.67 ± 1.7.
In the case of TTTCCGGCGT, the switch fluorescence ratio is reported as 1.03 ± 0.023.
TTTCCGGGAC was tested, and the switch fluorescence ratio was 1.41 ± 0.066.
Work on TTTCCTCAG yielded a switch fluorescence ratio of 1.3 ± 0.4.
With TTTCCTTGTG the switch fluorescence ratio was 1.36 ± 0.53.
Work on TTTCCTTTTG yielded a switch fluorescence ratio of 1.01 ± 0.054.
For TTTCGACACG, the switch fluorescence ratio was 0.989 ± 0.018.
For TTTCGAGCTT, the switch fluorescence ratio was 1.01 ± 0.022.
Sequence TTTCGAGTGC has a switch fluorescence ratio of 0.97892 ± 0.00082.
For TTTCGAGTTA, the switch fluorescence ratio was 1.03 ± 0.063.
TTTCGAGTTG showed a switch fluorescence ratio of 0.9809 ± 0.0029.
TTTCGATGGG showed a switch fluorescence ratio of 0.978 ± 0.015.
With TTTCGGAAAA the switch fluorescence ratio was 1.24 ± 0.41.
Sequence TTTCGGACCT has a switch fluorescence ratio of 1.3458 ± 0.00061.
TTTCGGCACT showed a switch fluorescence ratio of 1.01 ± 0.05.
Sequence TTTCGGCCAA has a switch fluorescence ratio of 1.62 ± 0.76.
Work on TTTCGGCGGG yielded a switch fluorescence ratio of 1 ± 0.013.
In the case of TTTCGGGAGC, the switch fluorescence ratio is reported as 0.977 ± 0.049.
In the case of TTTCGGGAGT, the switch fluorescence ratio is reported as 0.976 ± 0.016.
For TTTCGGGCCA, the switch fluorescence ratio was 1.12 ± 0.039.
With TTTCGGGCTG the switch fluorescence ratio was 0.984 ± 0.015.
TTTCGGGGAC was tested, and the switch fluorescence ratio was 1.43 ± 0.62.
With TTTCGGGGCT the switch fluorescence ratio was 1 ± 0.052.
For TTTCGGGGGC, the switch fluorescence ratio was 0.993 ± 0.028.
TTTCGGTCAT showed a switch fluorescence ratio of 1.02 ± 0.029.
With TTTCGGTTCC the switch fluorescence ratio was 1.05 ± 0.051.
With TTTCGTAAAA the switch fluorescence ratio was 1.002 ± 0.0057.
For TTTCGTATTC, the switch fluorescence ratio was 1 ± 0.015.
Sequence TTTCGTCCAA has a switch fluorescence ratio of 1.04 ± 0.026.
For TTTCGTGGGT, the switch fluorescence ratio was 0.9863 ± 0.006.
For TTTCGTGGTT, the switch fluorescence ratio was 0.937 ± 0.021.
TTTCGTTTGC showed a switch fluorescence ratio of 0.998 ± 0.046.
Sequence TTTCTAAGAA has a switch fluorescence ratio of 1.01 ± 0.013.
With TTTCTAATGG the switch fluorescence ratio was 1.02 ± 0.026.
In the case of TTTCTAGGGT, the switch fluorescence ratio is reported as 0.994 ± 0.017.
Work on TTTCTCAAAA yielded a switch fluorescence ratio of 1.03 ± 0.024.
In the case of TTTCTCGG, the switch fluorescence ratio is reported as 1.07 ± 0.093.
With TTTCTCTGTT the switch fluorescence ratio was 1.02 ± 0.011.
Sequence TTTCTGGAAT has a switch fluorescence ratio of 0.991 ± 0.0019.
With TTTCTGGCCG the switch fluorescence ratio was 0.907 ± 0.046.
TTTCTGGGGC showed a switch fluorescence ratio of 1.08 ± 0.08.
TTTCTGGGTT was tested, and the switch fluorescence ratio was 1.01 ± 0.023.
Work on TTTCTGTCGG yielded a switch fluorescence ratio of 1.02 ± 0.032.
In the case of TTTCTGTTGC, the switch fluorescence ratio is reported as 0.9887 ± 0.0047.
TTTCTGTTGG showed a switch fluorescence ratio of 0.992 ± 0.035.
In the case of TTTCTTCGGG, the switch fluorescence ratio is reported as 1 ± 0.019.
For TTTCTTGCAC, the switch fluorescence ratio was 1.067 ± 0.0095.
Work on TTTCTTGCCA yielded a switch fluorescence ratio of 1.02 ± 0.048.
Sequence TTTCTTGGCT has a switch fluorescence ratio of 1.2 ± 0.38.
With TTTCTTTCGG the switch fluorescence ratio was 1.03 ± 0.048.
TTTCTTTT showed a switch fluorescence ratio of 1.042 ± 0.0027.
In the case of TTTCTTTTAT, the switch fluorescence ratio is reported as 0.998 ± 0.016.
Work on TTTCTTTTCT yielded a switch fluorescence ratio of 1.02 ± 0.032.
TTTCTTTTTA was tested, and the switch fluorescence ratio was 0.9791 ± 0.0032.
For TTTGAAAAGC, the switch fluorescence ratio was 0.986 ± 0.018.
TTTGAACGGG was tested, and the switch fluorescence ratio was 1.01 ± 0.036.
In the case of TTTGAAGCAT, the switch fluorescence ratio is reported as 1 ± 0.061.
In the case of TTTGAAGGG, the switch fluorescence ratio is reported as 0.965 ± 0.012.
Work on TTTGAAGTCT yielded a switch fluorescence ratio of 0.978 ± 0.09.
TTTGAAGTTG gave a switch fluorescence ratio of 0.992 ± 0.029.
TTTGAATAGA gave a switch fluorescence ratio of 0.992 ± 0.019.
TTTGACAAAC gave a switch fluorescence ratio of 1.1 ± 0.073.
TTTGACCTGT was tested, and the switch fluorescence ratio was 0.991 ± 0.013.
TTTGACGACA showed a switch fluorescence ratio of 1.11 ± 0.1.
With TTTGACGTTG the switch fluorescence ratio was 1.02 ± 0.047.
TTTGAGAAGG was tested, and the switch fluorescence ratio was 0.948 ± 0.022.
Work on TTTGAGACGG yielded a switch fluorescence ratio of 0.99 ± 0.019.
Work on TTTGAGCTTG yielded a switch fluorescence ratio of 0.981 ± 0.017.
TTTGAGCTTT gave a switch fluorescence ratio of 1.02 ± 0.018.
In the case of TTTGAGGGA, the switch fluorescence ratio is reported as 0.9945 ± 0.0052.
For TTTGAGGGGT, the switch fluorescence ratio was 1.03 ± 0.065.
